target: HIV-1LAI envelope gp120 labeled with radioactive iodine (HIV-1 LAI), P03377; experiment: 125I-gp120, peptide array

Row | Binder | counts minus background (counts per 20 min)
1 | TVNLYSSVLILAFISLDR (modifications not checked) [CXCR4 117-134] | 242
2 | LLFVITLPFWAVDAVANW (modifications not checked) [CXCR4 85-102] | 63
3 | SCYCIIISKLSHSKGHQK (modifications not checked) [CXCR4 217-234] | 259
4 | LRSMTDKYRLHLSVADLL (modifications not checked) [CXCR4 69-86] | 160
5 | FQHIMVGLILPGIVILSC (modifications not checked) [CXCR4 201-218] | 170
6 | YSSVLILAFISLDRYLAI (modifications not checked) [CXCR4 121-138] | 157
7 | FYPNDLWVVVFQFQHIMV (modifications not checked) [CXCR4 189-206] | 416
8 | FIFGFVGNMLVILILINC (modifications not checked) [CCR5 41-58] | 343
9 | ICDRFYPNDLWVVVFQFQ (modifications not checked) [CXCR4 185-202] | 306
10 | SVADLLFVITLPFWAVDA (modifications not checked) [CXCR4 81-98] | 253
11 | EKVVYVGVWIPALLLTIP (modifications not checked) [CXCR4 153-170] | 147
12 | VSEADDRYICDRFYPNDL (modifications not checked) [CXCR4 177-194] | 157
13 | MDYQVSSPIYDINYYTSE (modifications not checked) [CCR5 1-18] | 735
14 | TDKYRLHLSVADLLFVIT (modifications not checked) [CXCR4 73-90] | 92
15 | ILPGIVILSCYCIIISKL (modifications not checked) [CXCR4 209-226] | 192
16 | YVGVWIPALLLTIPDFIF (modifications not checked) [CXCR4 157-174] | 124
17 | LILAFISLDRYLAIVHAT (modifications not checked) [CXCR4 125-142] | 107
18 | NWYFGNFLCKAVHVIYTV (modifications not checked) [CXCR4 101-118] | 96
19 | FVGNMLVILILINCKRLK (modifications not checked) [CCR5 45-62] | 62
20 | YQKKLRSMTDKYRLHLSV (modifications not checked) [CXCR4 65-82] | 99
21 | MLVILILINCKRLKSMTD (modifications not checked) [CCR5 49-66] | 84
22 | DAVANWYFGNFLCKAVHV (modifications not checked) [CXCR4 97-114] | 112
23 | AIVHATNSQRPRKLLAEK (modifications not checked) [CXCR4 137-154] | 73
24 | KLLAEKVVYVGVWIPALL (modifications not checked) [CXCR4 149-166] | 89

Row | Binder | counts minus background (counts per 20 min)
25 | ATNSQRPRKLLAEKVVYV (modifications not checked) [CXCR4 141-158] | 78
26 | CKAVHVIYTVNLYSSVLI (modifications not checked) [CXCR4 109-126] | 243
27 | DLWVVVFQFQHIMVGLIL (modifications not checked) [CXCR4 193-210] | 422
28 | LILINCKRLKSMTDIYLL (modifications not checked) [CCR5 53-70] | 2
29 | GNFLCKAVHVIYTVNLYS (modifications not checked) [CXCR4 105-122] | 231
30 | MVGLILPGIVILSCYCII (modifications not checked) [CXCR4 205-222] | 167
31 | ITLPFWAVDAVANWYFGN (modifications not checked) [CXCR4 89-106] | 130
32 | IPDFIFANVSEADDRYIC (modifications not checked) [CXCR4 169-186] | 438
33 | DDRYICDRFYPNDLWVVV (modifications not checked) [CXCR4 181-198] | 125
34 | RLHLSVADLLFVITLPFW (modifications not checked) [CXCR4 77-94] | 136
35 | GLVILVMGYQKKLRSMTD (modifications not checked) [CXCR4 57-74] | 157
36 | HVIYTVNLYSSVLILAFI (modifications not checked) [CXCR4 113-130] | 118
37 | VVFQFQHIMVGLILPGIV (modifications not checked) [CXCR4 197-214] | 589
38 | WIPALLLTIPDFIFANVS (modifications not checked) [CXCR4 161-178] | 182
39 | LLLTIPDFIFANVSEADD (modifications not checked) [CXCR4 165-182] | 1010
40 | IVILSCYCIIISKLSHSK (modifications not checked) [CXCR4 213-230] | 277
41 | QRPRKLLAEKVVYVGVWI (modifications not checked) [CXCR4 145-162] | 127
42 | DRYLAIVHATNSQRPRKL (modifications not checked) [CXCR4 133-150] | 168
43 | LVMGYQKKLRSMTDKYRL (modifications not checked) [CXCR4 61-78] | 105
44 | YSLVFIFGFVGNMLVILI (modifications not checked) [CCR5 37-54] | 347
45 | IFANVSEADDRYICDRFY (modifications not checked) [CXCR4 173-190] | 267
46 | FISLDRYLAIVHATNSQR (modifications not checked) [CXCR4 129-146] | 91
47 | FWAVDAVANWYFGNFLCK (modifications not checked) [CXCR4 93-110] | 66
